In patent US20230348564A1, “ANTI-CANCER PROTEINS” (UNICHEM LABORATORIES LTD, priority 2020, published 2023):

Assays:
[1] = tested on: MCF-7 (Human breast adenocarcinoma); experiment: MTT cytotoxicity assay; details: 48h
Procedure: (§1) All the cancer cell lines were procured from National Centre for Cell Science, Pune (India). Cell lines were maintained under conditions as mentioned in Table 23. The cell lines were sub-cultured by trypsinization followed by splitting the cell suspension into fresh flasks and supplementing with fresh culture medium.
(§2) All the cell lines were grown in specified media at 37° C. with 95% Humidity and 5% CO2.
(§3) The cells were trypsinized, counted by Trypan blue method in Neuebauer's Chamber and plated in wells of flat bottom 96-well plate at the density corresponding to 10×10^3 cells/well/200 μL medium.
(§4) Following overnight incubation, the media in the plate was replenished with 180 μL/well and then the cells were treated with 20 μL of each test item at concentrations ranging from 2.5 μg/mL-80 μg/mL in triplicates, so that the total volume in each well is 200 μL.
(§5) The untreated cells served as negative control. The cells were incubated with the test items or positive control for a time period of 48h. Following incubation, the cell cytotoxicity was estimated using MTT assay. Absorbance was measured at 540 nm. The percentage cytotoxicity corresponding to each treatment was calculated using the formula:
(§6) % Cytotoxicity=(1−X/R)*100
(§7) Where X=absorbance of wells corresponding to treated cells R=absorbance of untreated cells (cells maintained in growth medium only)
(§8) IC50 value was calculated using Graph-Pad Prism version 4.01 software.

[2] = tested on: T-47D (Human mammary gland ductal carcinoma); experiment: MTT cytotoxicity assay; details: 48h
Procedure: as §1, §2, §3, §4, §5, §6, §7, §8

[3] = tested on: T24 (Human Bladder Cancer); experiment: MTT cytotoxicity assay; details: 48h
Procedure: as §1, §2, §3, §4, §5, §6, §7, §8

[4] = tested on: MDA-MB-453 (Human breast metastatic carcinoma); experiment: MTT cytotoxicity assay; details: 48h
Procedure: as §1, §2, §3, §4, §5, §6, §7, §8

[5] = tested on: MDA-MB-231 (Human breast adenocarcinoma); experiment: MTT cytotoxicity assay; details: 48h
Procedure: as §1, §2, §3, §4, §5, §6, §7, §8

[6] = tested on: PBMCs (Peripheral blood mononuclear cells); experiment: MTT cytotoxicity assay; details: 48h
Procedure: as §1, §2, §3, §4, §5, §6, §7, §8

[7] = tested on: PANC-1 (Human pancreatic epitheloid carcinoma); experiment: MTT cytotoxicity assay; details: 48h
Procedure: as §1, §2, §3, §4, §5, §6, §7, §8

[8] = tested on: MIA PaCa-2 (Human pancreatic carcinoma); experiment: MTT cytotoxicity assay; details: 48h
Procedure: as §1, §2, §3, §4, §5, §6, §7, §8

PANC-1 = experiment: Cell cycle analysis (PI stain); format: cell-based, Human; details: 24 h
Procedure: (§9) The cell lines were maintained in DMEM+10% FBS (heat inactivated) at 37° C. with 5% CO2, and 95% humidity. Antibiotics Penicillin (100 U/mL) and Streptomycin (100 μg/mL) were added to the medium.
(§10) The stock solution of recombinant lectin having the amino acid sequence of SEQ ID NO. […] Doxorubicin was used as positive control and stock solution was prepared in DMSO.
(§11) Cells were counted using hemocytometer and plated in culture plates at density of 0.5×10^6 cells/well in DMEM+10% FBS in 6-well plates. Cells were incubated overnight to allow the cell recovery and exponential growth. Following overnight incubation, cells were sera starved in DMEM+1% FBS for 4 h. […] Untreated cells were included as Control group for test item. Cells treated with Doxorubicin were included as Positive Control group. DMSO treated cells were included as control group for Doxorubicin. After treatment, cells were incubated for a time period of 24 h. Following incubation, the pro-apoptotic effect by cell cycle was determined as follows: Cell cycle reagent contains PI stain, which stains DNA of cells in different phases of cell cycle; Sub(G0/G1), G1, S, G2 and M. Cells in Sub(G0/G1) phase correspond to apoptotic cells.
(§12) Cells were gently harvested into pre-labeled centrifuge tubes and centrifuged at 450 g for 5 min, RT (low brake). The supernatants were removed carefully (not to touch the pellet) and discarded. 1 mL of 1×PBS was added to the pellet and resuspended gently to make homogenous suspension. Cells were centrifuged at 450 g for 5 min, RT (low brake) (washing step). The supernatant was carefully removed leaving behind approx 100 μL of PBS. Cells were resuspended gently yet thoroughly in residual PBS. Ice-cold 70% ethanol (300 μLI) was added drop-wise into cells in each tube while vortexing at low speed (fixation step). Cells were stored at 4° C. for 24 h prior to staining.
(§13) Ethanol fixed cells were centrifuged at 450 g for 5 min, RT (low brake). The supernatant was carefully removed (not to touch the pellet) and discarded. (The pellet might not be visible but makes a thin film on surface of tube). 1 mL of 1×PBS was added into pellet and resuspended gently. Cells were incubated for 1 min at RT. Cells were centrifuged at 450 g for 5 min, RT (low brake) (washing step). The supernatant was removed carefully leaving behind approx 20 μL-50 μL of PBS. 200 μL of Cell Cycle reagent was added into each tube.
(§14) Cells were resuspended gently, mixed and were incubated for 30 min, RT, Dark. The stained samples were transferred into 96-well plates and acquired on flow cytometer (Guava technologies). Percentage of cells in Sub (G0/G1) phase were determined. Fold increase in apoptotic cells (treated with Test Items) was determined as compared to Control (untreated cells).

MDA-MB-231 = experiment: Cell cycle analysis (PI stain); format: cell-based, Human; details: 24 h
Procedure: as §9, §10, §11, §12, §13, §14

B1: SEQ ID NO. 2: recombinant lectin; variant of the S. rolfsii lectin amino acid sequence (reported as Rec-2 in WO 2010/095143) (protein)
chain: TYKITVRVYQTNPDAFFHPVEKTVWKYANGGTWTITDDQHVLTMGGSGTSGTLRFHADNGESFTATFGVHNYKRWCDIVTNLAADETGMVINQQYYSQKNREEARERQLSNYQVKNAKGRNFQIVYTEAEGNDLHANLIIG
modifications: In vitro synthesis
[1]
  IC50: >80 mg/L
[2]
  IC50: >80 mg/L
[3]
  IC50: 10.4 mg/L
[4]
  IC50: >80 mg/L
[5]
  IC50: 9.7 mg/L
[6]
  IC50: >80 mg/L
[7]
  IC50: 24.3 mg/L
[8]
  IC50: >80 mg/L
PANC-1; 2.5 μg/mL
  % Population of cells, Apoptotic Sub(G0/G1): 1.60%
  % Population of cells, G0/G1: 38.89%
  % Population of cells, G2/M: 24.83%
  % Population of cells, S: 9.89%
PANC-1; 5 μg/mL
  % Population of cells, Apoptotic Sub(G0/G1): 2.54%
  % Population of cells, G0/G1: 40.09%
  % Population of cells, G2/M: 23.83%
  % Population of cells, S: 10.31%
  Fold Increase (wrt Control) Apoptotic Sub(G0/G1): 1.4 fold
PANC-1; 10 μg/mL
  % Population of cells, Apoptotic Sub(G0/G1): 4.23%
  % Population of cells, G0/G1: 44.43%
  % Population of cells, G2/M: 23.92%
  % Population of cells, S: 10.15%
  Fold Increase (wrt Control) Apoptotic Sub(G0/G1): 2.4 fold
PANC-1; 20 μg/mL
  % Population of cells, Apoptotic Sub(G0/G1): 3.92%
  % Population of cells, G0/G1: 44.24%
  % Population of cells, G2/M: 23.79%
  % Population of cells, S: 10.83%
  Fold Increase (wrt Control) Apoptotic Sub(G0/G1): 2.2 fold
PANC-1; 80 μg/mL
  % Population of cells, Apoptotic Sub(G0/G1): 6.21%
  % Population of cells, G0/G1: 39.63%
  % Population of cells, G2/M: 27.41%
  % Population of cells, S: 9.58%
  Fold Increase (wrt Control) Apoptotic Sub(G0/G1): 3.5 fold
MDA-MB-231; 2.5 μg/mL
  % Population of cells, Apoptotic Sub(G0/G1): 10.05%
  % Population of cells, G0/G1: 65.21%
  % Population of cells, G2/M: 12.97%
  % Population of cells, S: 6.10%
  Fold Increase (wrt Control) Apoptotic Sub(G0/G1): 4.1 fold
MDA-MB-231; 5 μg/mL
  % Population of cells, Apoptotic Sub(G0/G1): 5.75%
  % Population of cells, G0/G1: 61.99%
  % Population of cells, G2/M: 15.40%
  % Population of cells, S: 8.15%
  Fold Increase (wrt Control) Apoptotic Sub(G0/G1): 2.3 fold
MDA-MB-231; 10 μg/mL
  % Population of cells, Apoptotic Sub(G0/G1): 6.65%
  % Population of cells, G0/G1: 60.71%
  % Population of cells, G2/M: 15.50%
  % Population of cells, S: 7.36%
  Fold Increase (wrt Control) Apoptotic Sub(G0/G1): 2.7 fold
MDA-MB-231; 20 μg/mL
  % Population of cells, Apoptotic Sub(G0/G1): 15.43%
  % Population of cells, G0/G1: 55.66%
  % Population of cells, G2/M: 13.35%
  % Population of cells, S: 6.55%
  Fold Increase (wrt Control) Apoptotic Sub(G0/G1): 6.3 fold
MDA-MB-231; 80 μg/mL
  % Population of cells, Apoptotic Sub(G0/G1): 35.62%
  % Population of cells, G0/G1: 42.49%
  % Population of cells, G2/M: 10.14%
  % Population of cells, S: 8.09%
  Fold Increase (wrt Control) Apoptotic Sub(G0/G1): 14.5 fold
